Reference: US20110275102
Where “and” joins values, the source holds several entries; their conditions need not be identical. Equal values may be shown once.

Experiments:
RPRAASF = system: T1, RPRAASF
T1 sequence: RPRAASF

Crosstide GRPRTSSFAEG = system: T2, Crosstide GRPRTSSFAEG
T2 sequence: GRPRTSSFAEG

RPRAATF = system: T3, RPRAATF
T3 sequence: RPRAATF

RPRTSTF = system: T4, RPRTSTF
T4 sequence: RPRTSTF

RPRTSSF = system: T5, RPRTSSF
T5 sequence: RPRTSSF

KKRNKTLSVA = system: T6, KKRNKTLSVA
T6 sequence: KKRNKTLSVA

RPRNSSF = system: T7, RPRNSSF
T7 sequence: RPRNSSF

RPRTSSV = system: T8, RPRTSSV
T8 sequence: RPRTSSV

KKKNRTLSVA = system: T9, KKKNRTLSVA
T9 sequence: KKKNRTLSVA

GRPRTSSF = system: T10, GRPRTSSF
T10 sequence: GRPRTSSF

KPRTSSF = system: T11, KPRTSSF
T11 sequence: KPRTSSF

RPRAGSF = system: T12, RPRAGSF
T12 sequence: RPRAGSF

RPRTSSK = system: T13, RPRTSSK
T13 sequence: RPRTSSK

RPRTSS = system: T14, RPRTSS
T14 sequence: RPRTSS

RPRTVSF = system: T15, RPRTVSF
T15 sequence: RPRTVSF

RPRTSSA = system: T16, RPRTSSA
T16 sequence: RPRTSSA

RPRASSF = system: T17, RPRASSF
T17 sequence: RPRASSF

RPRTSSL = system: T18, RPRTSSL
T18 sequence: RPRTSSL

RPRGSSF = system: T19, RPRGSSF
T19 sequence: RPRGSSF

[1] = system: myelin basic protein (MBP)
RPKTSSF = system: T20, RPKTSSF
T20 sequence: RPKTSSF

RPRTSSE = system: T21, RPRTSSE
T21 sequence: RPRTSSE

RPRTSSFA = system: T22, RPRTSSFA
T22 sequence: RPRTSSFA

RPRGASF = system: T23, RPRGASF
T23 sequence: RPRGASF

KKRNRTLTV = system: T24, KKRNRTLTV
T24 sequence: KKRNRTLTV

RPRGGSF = system: T25, RPRGGSF
T25 sequence: RPRGGSF

RPRTNSF = system: T26, RPRTNSF
T26 sequence: RPRTNSF

GRARTSSFA = system: T27, GRARTSSFA
T27 sequence: GRARTSSFA

RPRVSSF = system: T28, RPRVSSF
T28 sequence: RPRVSSF

RPRTASF = system: T29, RPRTASF
T29 sequence: RPRTASF

RPRTGSF = system: T30, RPRTGSF
T30 sequence: RPRTGSF

KKRNRTLSVA = system: T31, KKRNRTLSVA
T31 sequence: KKRNRTLSVA

**Q.** “MAPKAP kinase-1 purified from rabbit skeletal muscle” was tested. Which Km (RPRAASF) did it give?
**A.** 20 µM

**Q.** What about the Vmax (RPRAASF) of the same substance?
**A.** 1020 U/mg

**Q.** What about the Km (Crosstide GRPRTSSFAEG) of the same substance?
**A.** 2 µM

**Q.** What about the Vmax (Crosstide GRPRTSSFAEG) of the same substance?
**A.** 790 U/mg

**Q.** And the Km (RPRAATF)?
**A.** > 500 µM

**Q.** What about the Km (RPRTSTF) of the same substance?
**A.** > 500 µM

**Q.** What about the Vmax (RPRTSTF) of the same substance?
**A.** > 500 U/mg

**Q.** And the Km (RPRTSSF)?
**A.** 12 µM

**Q.** What about the Vmax (RPRTSSF) of the same substance?
**A.** 840 U/mg

**Q.** Which results are given for “HA-RAC-PKα immunoprecipitated from IGF-1 stimulated 293 cells”?
**A.** Km (KKRNKTLSVA): > 500 µM; Km (histone H2B): histone H2B with a Km of 5 µM and a Vmax of 68 U/mg; Vmax (histone H2B): histone H2B with a Km of 5 µM and a Vmax of 68 U/mg; Km (RPRAASF): 25 µM; V (0.1 mM): relative rate of phosphorylation at 0.1 mM peptide (relative to peptide 1) (RPRAASF): 77; Vmax (RPRAASF): 215 U/mg; Km (Crosstide GRPRTSSFAEG): 4 µM; V (0.1 mM): relative rate of phosphorylation at 0.1 mM peptide (relative to peptide 1) (Crosstide GRPRTSSFAEG): 100; Vmax (Crosstide GRPRTSSFAEG): 250 U/mg; Km (RPRNSSF): > 500 µM; V (0.1 mM): relative rate of phosphorylation at 0.1 mM peptide (relative to peptide 1) (RPRNSSF): 21; Km (RPRTSSV): 21 µM; V (0.1 mM): relative rate of phosphorylation at 0.1 mM peptide (relative to peptide 1) (RPRTSSV): 102; Vmax (RPRTSSV): 300 U/mg; Km (KKKNRTLSVA): 185 µM; Vmax (KKKNRTLSVA): 270 U/mg; Km (GRPRTSSF): 8 µM; V (0.1 mM): relative rate of phosphorylation at 0.1 mM peptide (relative to peptide 1) (GRPRTSSF): 129; Vmax (GRPRTSSF): 385 U/mg; Km (RPRAATF): 25 µM; Vmax (RPRAATF): 230 U/mg; Km (KPRTSSF): > 500 µM; V (0.1 mM): relative rate of phosphorylation at 0.1 mM peptide (relative to peptide 1) (KPRTSSF): 4; Km (RPRAGSF): 49 µM; V (0.1 mM): relative rate of phosphorylation at 0.1 mM peptide (relative to peptide 1) (RPRAGSF): 70; Vmax (RPRAGSF): 114 U/mg; Km (RPRTSTF): 30 µM; V (0.1 mM): relative rate of phosphorylation at 0.1 mM peptide (relative to peptide 1) (RPRTSTF): 78; Vmax (RPRTSTF): 240 U/mg and 243 U/mg; Km (RPRTSSK): 80 µM; V (0.1 mM): relative rate of phosphorylation at 0.1 mM peptide (relative to peptide 1) (RPRTSSK): 67; Vmax (RPRTSSK): 308 U/mg; Km (RPRTSS): > 500 µM; V (0.1 mM): relative rate of phosphorylation at 0.1 mM peptide (relative to peptide 1) (RPRTSS): 2; Km (RPRTVSF): 30 µM; V (0.1 mM): relative rate of phosphorylation at 0.1 mM peptide (relative to peptide 1) (RPRTVSF): 89; Vmax (RPRTVSF): 365 U/mg; Km (RPRTSSA): 250 µM; V (0.1 mM): relative rate of phosphorylation at 0.1 mM peptide (relative to peptide 1) (RPRTSSA): 30; Vmax (RPRTSSA): 265 U/mg; Km (RPRASSF): 12 µM; V (0.1 mM): relative rate of phosphorylation at 0.1 mM peptide (relative to peptide 1) (RPRASSF): 89; Vmax (RPRASSF): 230 U/mg; Km (RPRTSSL): 8 µM; V (0.1 mM): relative rate of phosphorylation at 0.1 mM peptide (relative to peptide 1) (RPRTSSL): 104; Vmax (RPRTSSL): 278 U/mg; Km (RPRGSSF): 60 µM; V (0.1 mM): relative rate of phosphorylation at 0.1 mM peptide (relative to peptide 1) (RPRGSSF): 37; Vmax (RPRGSSF): 163 U/mg; Km [1]: MBP with a Km of 5 µM and a Vmax of 25 U/mg; Vmax [1]: MBP with a Km of 5 µM and a Vmax of 25 U/mg; Km (RPKTSSF): > 500 µM; V (0.1 mM): relative rate of phosphorylation at 0.1 mM peptide (relative to peptide 1) (RPKTSSF): 2; Km (RPRTSSE): > 500 µM; V (0.1 mM): relative rate of phosphorylation at 0.1 mM peptide (relative to peptide 1) (RPRTSSE): 9; Km (RPRTSSFA): 8 µM; V (0.1 mM): relative rate of phosphorylation at 0.1 mM peptide (relative to peptide 1) (RPRTSSFA): 109; Vmax (RPRTSSFA): 305 U/mg; Km (RPRGASF): 105 µM; V (0.1 mM): relative rate of phosphorylation at 0.1 mM peptide (relative to peptide 1) (RPRGASF): 37; Vmax (RPRGASF): 160 U/mg; Km (KKRNRTLTV): 388 µM; Vmax (KKRNRTLTV): 330 U/mg; Km (RPRGGSF): 105 µM; V (0.1 mM): relative rate of phosphorylation at 0.1 mM peptide (relative to peptide 1) (RPRGGSF): 55; Vmax (RPRGGSF): 345 U/mg; Km (RPRTNSF): 30 µM; V (0.1 mM): relative rate of phosphorylation at 0.1 mM peptide (relative to peptide 1) (RPRTNSF): 81; Vmax (RPRTNSF): 300 U/mg; Km (GRARTSSFA): Km of 10 µM and Vmax of 230 U/mg; Vmax (GRARTSSFA): Km of 10 µM and Vmax of 230 U/mg; Km (RPRVSSF): 25 µM; V (0.1 mM): relative rate of phosphorylation at 0.1 mM peptide (relative to peptide 1) (RPRVSSF): 77; Vmax (RPRVSSF): 273 U/mg; Km (RPRTASF): 20 µM; V (0.1 mM): relative rate of phosphorylation at 0.1 mM peptide (relative to peptide 1) (RPRTASF): 83; Vmax (RPRTASF): 213 U/mg; Km (RPRTGSF): 25 µM; V (0.1 mM): relative rate of phosphorylation at 0.1 mM peptide (relative to peptide 1) (RPRTGSF): 77; Vmax (RPRTGSF): 233 U/mg; Km (KKRNRTLSVA): 80 µM; Vmax (KKRNRTLSVA): 300 U/mg; Km (RPRTSSF): 5 µM; V (0.1 mM): relative rate of phosphorylation at 0.1 mM peptide (relative to peptide 1) (RPRTSSF): 105; Vmax (RPRTSSF): 260 U/mg
